Reference: patent publication US20170051042A1

How the values were obtained:
[1] = target: purified GPIIb-IIIa (Innovative Research), immobilized (UniProt P08514); assay: solid phase competition of 3.5 nM biotinylated fibrinogen on coated GPIIb-IIIa, N=4
[2] = target: GPIIb/IIIa on mouse platelets (mouse) (UniProt Q9QUM0); assay: mouse platelet depletion assay, unbound FVIII activity in supernatant; the filing calls this non-specific binding, not occurring through the peptide
[3] = target: GPIIb/IIIa on human platelets (human) (UniProt P08514); assay: platelet depletion assay, 2.5 nM, plasma lacking FVIII and vWF (condition C); the filing calls this non-specific binding to platelets, not through GPIIb/IIIa

Chain of GPIIb/IIIa on mouse platelets (mouse) (Q9QUM0 32-1033, chain 1 of 2): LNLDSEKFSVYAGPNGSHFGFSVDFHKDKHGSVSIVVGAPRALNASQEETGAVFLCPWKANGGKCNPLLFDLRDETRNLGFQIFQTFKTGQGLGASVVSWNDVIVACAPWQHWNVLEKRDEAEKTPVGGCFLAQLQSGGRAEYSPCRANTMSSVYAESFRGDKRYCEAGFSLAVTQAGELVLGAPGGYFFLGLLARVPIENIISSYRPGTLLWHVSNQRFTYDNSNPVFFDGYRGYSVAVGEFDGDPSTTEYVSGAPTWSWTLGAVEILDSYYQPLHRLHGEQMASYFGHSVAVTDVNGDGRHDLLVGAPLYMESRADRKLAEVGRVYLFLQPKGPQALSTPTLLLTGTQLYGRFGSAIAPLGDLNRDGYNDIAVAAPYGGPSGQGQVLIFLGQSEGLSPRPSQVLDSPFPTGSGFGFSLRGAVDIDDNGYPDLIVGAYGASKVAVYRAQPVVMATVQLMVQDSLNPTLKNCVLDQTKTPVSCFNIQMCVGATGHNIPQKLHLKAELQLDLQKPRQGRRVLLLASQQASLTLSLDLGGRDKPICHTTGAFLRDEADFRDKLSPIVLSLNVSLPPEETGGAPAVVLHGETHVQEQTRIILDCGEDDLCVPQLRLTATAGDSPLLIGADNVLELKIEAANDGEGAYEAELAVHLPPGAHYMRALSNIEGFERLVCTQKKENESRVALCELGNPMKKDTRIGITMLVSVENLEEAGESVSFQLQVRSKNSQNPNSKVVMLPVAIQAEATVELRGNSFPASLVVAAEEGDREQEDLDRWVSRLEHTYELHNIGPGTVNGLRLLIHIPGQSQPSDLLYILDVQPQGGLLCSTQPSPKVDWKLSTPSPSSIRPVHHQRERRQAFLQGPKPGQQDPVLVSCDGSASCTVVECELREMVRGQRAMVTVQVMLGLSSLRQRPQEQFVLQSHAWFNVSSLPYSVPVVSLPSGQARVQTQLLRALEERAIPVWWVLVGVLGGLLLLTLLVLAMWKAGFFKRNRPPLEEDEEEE
Chain of GPIIb/IIIa on mouse platelets (mouse) (O54890 26-787, chain 2 of 2, further chain): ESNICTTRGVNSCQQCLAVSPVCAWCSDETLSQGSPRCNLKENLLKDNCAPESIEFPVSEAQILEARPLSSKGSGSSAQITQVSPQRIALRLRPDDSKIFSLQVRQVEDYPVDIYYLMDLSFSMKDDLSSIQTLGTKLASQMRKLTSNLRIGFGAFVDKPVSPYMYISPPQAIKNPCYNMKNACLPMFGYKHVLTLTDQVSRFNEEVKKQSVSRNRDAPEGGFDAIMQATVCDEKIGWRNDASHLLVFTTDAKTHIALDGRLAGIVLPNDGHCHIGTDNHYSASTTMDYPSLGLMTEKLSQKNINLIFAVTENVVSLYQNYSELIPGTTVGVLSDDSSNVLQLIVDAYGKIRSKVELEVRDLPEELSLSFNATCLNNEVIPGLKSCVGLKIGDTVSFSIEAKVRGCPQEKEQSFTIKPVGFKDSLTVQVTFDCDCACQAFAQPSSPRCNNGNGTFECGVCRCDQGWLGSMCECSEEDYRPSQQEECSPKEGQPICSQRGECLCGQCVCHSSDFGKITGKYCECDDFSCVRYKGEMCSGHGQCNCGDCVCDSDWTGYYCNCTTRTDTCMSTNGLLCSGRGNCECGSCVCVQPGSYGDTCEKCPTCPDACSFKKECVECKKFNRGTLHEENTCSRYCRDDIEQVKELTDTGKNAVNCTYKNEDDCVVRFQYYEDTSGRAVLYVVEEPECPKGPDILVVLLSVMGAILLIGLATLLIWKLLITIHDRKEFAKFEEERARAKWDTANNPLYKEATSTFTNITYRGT

Row | Substance | IC50 [1] [nM] | percent of activity bound [2] [%] | percent of FVIII activity bound [3] [%]
1 | integrilin (peptide) | 1.3 | – | –
2 | unmodified recombinant FVIII (from UniProt P00451 20-2351) | – | 59 | 35
